The target in experiment [1] is gp120 (Table 2, strain not given). Description: Luminex bead assay.
Experiment [2] deals with recombinant human kynureninase (rhKYNU) (human) (UniProt Q16719). Description: ELISA on plate-bound rhKynureninase, antibody titrated. In general terms: An ELISA detects its analyte on a solid surface through an enzyme-linked reagent.
Experiment [3] addresses HIV-1 Env gp41 (HIV-1) (UniProt P05877). The experiment is described as follows: Luminex bead assay.
Experiment [4] has as its target recombinant human kynureninase (rhKYNU) (human) (UniProt Q16719). The experiment is described as follows: ELISA on plate-bound rhKYNU, antibody titrated.
Experiment [5] has the same target. Description: ELISA on plate-bound rhKYNU, 2F5 titrated (overlay with DP178-Q16L).
Experiment [6] addresses membrane conjugated gp41-inter. Description: SPR, gp41-inter held by Ni on liposomes captured on the chip, mAb injected; bivalent analyte fit [left panel]. (In general: In SPR one partner is held on a chip, and binding of the other changes the refractive index at the surface.)
Experiment [7] deals with SSA. Description: Athena autoantigen assay, mAb 25 ug/ml.
In experiment [8] the target is Sm. The experiment is described as follows: Athena autoantigen assay, mAb 25 ug/ml.
In experiment [9] the target is SSB. The experiment is described as follows: Athena autoantigen assay, mAb 25 ug/ml.
Sequence of SSB (P05455 whole entry): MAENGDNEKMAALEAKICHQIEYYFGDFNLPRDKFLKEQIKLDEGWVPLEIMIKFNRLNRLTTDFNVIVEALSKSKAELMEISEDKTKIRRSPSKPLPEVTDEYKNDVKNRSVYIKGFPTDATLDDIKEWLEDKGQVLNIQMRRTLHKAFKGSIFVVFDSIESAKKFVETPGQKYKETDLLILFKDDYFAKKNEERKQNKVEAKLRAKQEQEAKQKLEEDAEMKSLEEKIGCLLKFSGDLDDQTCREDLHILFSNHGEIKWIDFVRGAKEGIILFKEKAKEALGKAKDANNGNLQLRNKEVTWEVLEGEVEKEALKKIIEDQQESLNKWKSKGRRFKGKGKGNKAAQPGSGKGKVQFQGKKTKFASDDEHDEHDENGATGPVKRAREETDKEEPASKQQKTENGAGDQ
Experiment [10] concerns the target Histone. Description: Athena autoantigen assay, mAb 25 ug/ml.
The target in experiment [11] is RNP. The experiment is described as follows: Athena autoantigen assay, mAb 25 ug/ml.
For experiment [12], the target named is Scl 70. Description: Athena autoantigen assay, mAb 25 ug/ml.
Experiment [13] concerns the target Jo 1. Description: Athena autoantigen assay, mAb 25 ug/ml.
Experiment [14] has as its target HCV E2 (HCV). Description: Luminex assay, antibody 50 µg/ml.
In experiment [15] the target is Influenza HA (Wisconsin) (influenza virus). The experiment is described as follows: Luminex assay, antibody 50 µg/ml.
The target in experiment [16] is SSA. The experiment is described as follows: Athena autoantigen assay, mAb 12.5 ug/ml.
For experiment [17], the target named is Sm. The experiment is described as follows: Athena autoantigen assay, mAb 12.5 ug/ml.
Experiment [18] has as its target SSB. Description: Athena autoantigen assay, mAb 12.5 ug/ml.
Experiment [19] has as its target Histone. The experiment is described as follows: Athena autoantigen assay, mAb 12.5 ug/ml.
Experiment [20] has as its target RNP. Description: Athena autoantigen assay, mAb 12.5 ug/ml.
Experiment [21] concerns the target Scl 70. Description: Athena autoantigen assay, mAb 12.5 ug/ml.
The target in experiment [22] is Jo 1. The experiment is described as follows: Athena autoantigen assay, mAb 12.5 ug/ml.
Sequence of Jo 1 (P12081 2-509): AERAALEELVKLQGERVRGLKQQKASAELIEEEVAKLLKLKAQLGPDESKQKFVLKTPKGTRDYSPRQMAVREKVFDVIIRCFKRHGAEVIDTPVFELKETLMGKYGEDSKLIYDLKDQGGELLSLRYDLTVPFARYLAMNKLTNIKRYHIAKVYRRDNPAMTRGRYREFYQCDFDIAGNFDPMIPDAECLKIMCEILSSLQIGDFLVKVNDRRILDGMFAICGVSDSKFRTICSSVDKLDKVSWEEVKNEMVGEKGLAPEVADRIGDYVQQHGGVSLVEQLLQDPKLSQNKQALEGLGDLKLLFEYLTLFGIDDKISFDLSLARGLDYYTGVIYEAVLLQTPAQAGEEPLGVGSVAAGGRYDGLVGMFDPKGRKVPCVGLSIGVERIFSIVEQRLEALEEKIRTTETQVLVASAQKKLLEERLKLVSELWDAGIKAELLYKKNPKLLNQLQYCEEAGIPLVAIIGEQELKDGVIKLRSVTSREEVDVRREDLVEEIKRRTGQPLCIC
Experiment [23] addresses SSA. The experiment is described as follows: Athena autoantigen assay, mAb 6.25 ug/ml.
Experiment [24] deals with Sm. The experiment is described as follows: Athena autoantigen assay, mAb 6.25 ug/ml.
Experiment [25] has as its target SSB. The experiment is described as follows: Athena autoantigen assay, mAb 6.25 ug/ml.
Experiment [26] concerns the target Histone. The experiment is described as follows: Athena autoantigen assay, mAb 6.25 ug/ml.
The target in experiment [27] is RNP. The experiment is described as follows: Athena autoantigen assay, mAb 6.25 ug/ml.
For experiment [28], the target named is Scl 70. The experiment is described as follows: Athena autoantigen assay, mAb 6.25 ug/ml.
In experiment [29] the target is Jo 1. The experiment is described as follows: Athena autoantigen assay, mAb 6.25 ug/ml.
The target in experiment [30] is Histone. Description: Athena autoantigen assay, mAb 50 ug/ml.
The target of experiment [31] is RNP. The experiment is described as follows: Athena autoantigen assay, mAb 50 ug/ml.
For experiment [32], the target named is Env (gp120) of HIV-1 isolate JRFL (virus) (HIV-1). The experiment is described as follows: cell-based or functional assay.
Experiment [33] addresses Env (gp120) of HIV-1 7165.18.N160K (HIV-1). The experiment is described as follows: cell-based or functional assay.
In experiment [34] the target is Env (gp120) of HIV-1 JRFL.E168K (HIV-1). Description: cell-based or functional assay.
Experiment [35] has as its target Env (gp120) of HIV-1 Q23.17.N160K (HIV-1). Description: cell-based or functional assay.
Experiment [36] deals with Env (gp120) of HIV-1 isolate Q23.17 (HIV-1). Description: cell-based or functional assay.
Experiment [37] addresses Env (gp120) of HIV-1 isolate JRCSF (HIV-1) (UniProt P20871). The experiment is described as follows: cell-based or functional assay.
Experiment [38] has as its target Env (gp120) of HIV-1 isolate 7165.18 (HIV-1). The experiment is described as follows: cell-based or functional assay.
Experiment [39] has as its target Env (gp120) of HIV-1 JRFL.N160K.E168K (HIV-1). The experiment is described as follows: cell-based or functional assay.
For experiment [40], the target named is Env (gp120) of HIV-1 JRCSF.N160K (HIV-1) (UniProt P20871). The experiment is described as follows: cell-based or functional assay.
In experiment [41] the target is HV00044 (6240 TZ5 140C) (HIV-1). Description: surface plasmon resonance; five sensorgrams with fitted curves, highest rising to about 650 RU with almost no dissociation up to 1000 s.

Sequence of recombinant human kynureninase (rhKYNU) (human) (Q16719 whole entry): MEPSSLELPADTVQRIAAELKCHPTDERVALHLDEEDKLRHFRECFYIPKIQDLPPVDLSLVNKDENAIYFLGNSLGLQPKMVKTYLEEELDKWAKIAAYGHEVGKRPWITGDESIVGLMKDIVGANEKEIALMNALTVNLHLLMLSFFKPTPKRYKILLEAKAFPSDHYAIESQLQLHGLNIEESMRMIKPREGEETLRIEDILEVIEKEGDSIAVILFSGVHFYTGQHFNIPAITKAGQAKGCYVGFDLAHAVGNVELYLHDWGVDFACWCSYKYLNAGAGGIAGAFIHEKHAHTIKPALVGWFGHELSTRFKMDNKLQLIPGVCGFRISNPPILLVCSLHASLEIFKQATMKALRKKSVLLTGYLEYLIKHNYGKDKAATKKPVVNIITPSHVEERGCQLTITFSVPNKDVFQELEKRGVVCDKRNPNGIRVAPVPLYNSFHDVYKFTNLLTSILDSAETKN

On to 1b12 original (antibody), for which the Reactivity in Luminex Units (Luminex units) in experiment [1] is 5110.
As usually defined, the EC50 (read off the curve) is the concentration needed to bring the measured effect to its halfway point. One may read the koff as the rate constant with which the complex falls apart. A higher koff goes with a short-lived complex. With 2F5 (antibody), the EC50 (read off the curve) was 0.03 µg/mL in experiment [2], 0.05 µg/mL in experiment [4] and 0.05 µg/mL in experiment [5]. The Reactivity in Luminex Units (Luminex units) in [1] turned out to be 9240; in experiment [3] it was 32700. The substance further displayed a Kd in experiment [6] of 0.21 nM. The koff in experiment [6] was 9e-06 s⁻¹.
The substance “17b original (CCR5 binding site antibody)” showed a Reactivity in Luminex Units (Luminex units) in [3] of 1430.
For the substance CH02 (antibody), the Athena autoreactivity score in [7] was determined as 6; in [8], 3; in experiment [9] it was 4.5; in experiment [10], 11.5; in experiment [11] it was 9; in experiment [12] it was 2. For the same substance, the Athena autoreactivity score in [13] amounted to 1.5; in [16] it was 5; in [17], 2.5; in experiment [18], 3.5; in experiment [19], 8.5; in [20], 6. The Athena autoreactivity score in [21] amounted to 1.5; in experiment [22], 1; in experiment [23], 5; in [24] it was 2.5; in experiment [25], 5; in experiment [26], 7. The results for the Athena autoreactivity score in experiment [27], in experiment [28] and in experiment [29] were 5, 2 and 1.5, respectively. The background subtracted RFUs came out at 333 RFU in experiment [14] and 0.3 RFU in experiment [15].
As to CH03 (antibody), the Athena autoreactivity score in experiment [30] stood at 844; in [31], 132; in experiment [7] it was 6; in experiment [8], 10; in experiment [9], 4; in experiment [10], 386. For the same substance, the Athena autoreactivity score in [11] was determined as 70; in experiment [12] it was 7; in experiment [13], 4; in experiment [16], 6; in experiment [17], 9; in [18], 6. The Athena autoreactivity score in experiment [19] was determined as 359; in experiment [20] it was 74; in experiment [21], 8; in experiment [22], 4; in [23] it was 5; in experiment [24], 7. Moreover, the Athena autoreactivity score stood at 5 in experiment [25]; 231 in experiment [26]; 51 in [27]; 4 in experiment [28]; 3 in experiment [29]. Besides, the background subtracted RFUs in experiment [14] came to 2910 RFU; in [15] it was 1 RFU.
For the substance CH04 (antibody), the background subtracted RFUs is 0.5 RFU in experiment [14] and 2.5 RFU in experiment [15].
With CH05 (antibody), the background subtracted RFUs in experiment [14] was determined as 1.3 RFU; in experiment [15] it was 5.5 RFU.
For the substance PG9 (antibody), the background subtracted RFUs in experiment [14] and in [15] was 0 RFU each time. In addition, the IC50 (virus neutralization) was over 50 µg/mL in experiment [32]; over 50 µg/mL in [33]; 0.008 µg/mL in experiment [34]; over 50 µg/mL in experiment [35]; 0.002 µg/mL in experiment [36]; 0.003 µg/mL in [37]. Moreover, the IC50 (virus neutralization) in experiment [38], in experiment [39] and in [40] was over 50 µg/mL throughout. The IC80 (virus neutralization) in experiment [32] was over 50 µg/mL; in experiment [33], over 50 µg/mL; in experiment [34], 0.055 µg/mL; in experiment [35] it was over 50 µg/mL; in experiment [36], 0.005 µg/mL; in experiment [37], 0.008 µg/mL. In addition, the IC80 (virus neutralization) in [38], in experiment [39] and in experiment [40] was over 50 µg/mL in each case. This substance also showed a Kd in experiment [41] of 0.75 nM.
As to PG16 (antibody), the background subtracted RFUs in experiment [14] and in [15] was 0 RFU throughout. In addition, the IC50 (virus neutralization) in experiment [32] was over 50 µg/mL; in experiment [33] it was over 50 µg/mL; in [34], 0.003 µg/mL; in experiment [35] it was over 50 µg/mL; in experiment [36], 0.001 µg/mL; in experiment [37], 0.003 µg/mL. For the same substance, the IC50 (virus neutralization) was 11.8 µg/mL in experiment [38], over 50 µg/mL in [39] and over 50 µg/mL in [40]. For the same substance, the IC80 (virus neutralization) in [32] was over 50 µg/mL; in experiment [33], over 50 µg/mL; in [34] it was 0.015 µg/mL; in experiment [35] it was over 50 µg/mL; in experiment [36], 0.003 µg/mL; in experiment [37], 0.012 µg/mL. Moreover, the IC80 (virus neutralization) in [38], in [39] and in experiment [40] was over 50 µg/mL throughout.
“Synagis (anti-RSV control mAb) (antibody)”: the background subtracted RFUs in experiment [14] was 0.5 RFU; in [15] it was 1 RFU.
